Results reported in US20120316071A1 (published 2012).

Tests used:
Recombinant Human DLL4 [1] = target: T1, Recombinant Human DLL4 (human, UniProt Q9NR61 27-524); test: ELISA on plate-coated DLL4, Fab at 6.67 nM (3-fold serial dilution)
T1 construct: Bought recombinant human DLL4 (R&D Systems 1506-D4/CF); also called delta-like protein 4; rHuman DLL4

Recombinant Human DLL4 [2] = target: T1, Recombinant Human DLL4; test: ELISA on plate-coated DLL4, Fab at 0.74 nM (3-fold serial dilution)
Recombinant Human DLL4 [3] = target: T1, Recombinant Human DLL4; test: ELISA on plate-coated DLL4, Fab at 20 nM (3-fold serial dilution)
Recombinant Human DLL4 [4] = target: T1, Recombinant Human DLL4; test: ELISA on plate-coated DLL4, Fab at 2.22 nM (3-fold serial dilution)
Recombinant Human DLL4 [5] = target: T1, Recombinant Human DLL4; test: ECL (MSD) binding assay, Fab on immobilised recombinant human DLL4; Fab concentration not given in the table
Recombinant Human DLL4 [6] = target: T2, Recombinant Human DLL4 (human, UniProt Q9NR61 27-524); test: ECL (MSD) 96-well plate assay, DLL4 coated at 30 ug/mL, Fab 0.1 uM; signal over blank
T2 construct: Bought recombinant human DLL4 (R&D Systems Cat#1506-D4/CF), coated on the plate; also called delta-like protein 4; rHuman DLL4

Recombinant Human DLL4 [7] = target: T2, Recombinant Human DLL4; test: ECL (MSD) 96-well plate assay, DLL4 coated at 15 ug/mL, Fab 0.02 uM; signal over blank

Row | Binder | Signal/Noise (Recombinant Human DLL4 [6]) | Signal/Noise (Recombinant Human DLL4 [7]) | also measured
1 | Fab VH1-46_IGHD6-6*01_IGHJ1*01 S102A/S103P/S104F/H111F I51A/N52L/S54T/G56H & L6_IGKJ1*01 S28N/S30D/S31H S52L/A55G (Fab, V domains shown, Fab expressed in E. coli: VH joined to CH1 from Plasmid A (His6 and Flag tags), VL joined to kappa CL from Plasmid C; also called H:APFF ALTH & L:NDH LG) VH: QVQLVQSGAEVKKPGASVKVSCKASGYTFTSYYMHWVRQAPGQGLEWMGIALPTGHSTSYAQKFQGRVTMTRDTSTSTVYMELSSLRSEDTAVYYCAREEYAPFSAEYFQFWGQGTLVTVSS VL: EIVLTQSPATLSLSPGERATLSCRASQNVDHYLAWYQQKPGQAPRLLIYDALNRGTGIPARFSGSGSGTDFTLTISSLEPEDFAVYYCQQRSNWPPWTFGQGTKVEIKR | – | – | ELISA signal (Recombinant Human DLL4 [1]): 0.212; ELISA signal (Recombinant Human DLL4 [2]): 0.028; ELISA signal (Recombinant Human DLL4 [3]): 0.39; ELISA signal (Recombinant Human DLL4 [4]): 0.069; ECL signal (Recombinant Human DLL4 [5]): 1760
2 | Fab VH5-51_IGHD5-18*01>3_IGHJ4*01 G100D & V3-4_IGLJ1*01 (Fab, V domains shown, Fab; VH-CH1 (His6/Flag, Plasmid A) and VL-lambda CL (Plasmid E)) VH: EVQLVQSGAEVKKPGESLKISCKGSGYSFTSYWIGWVRQMPGKGLEWMGIIYPGDSDTRYSPSFQGQVTISADKSISTAYLQWSSLKASDTAMYYCARRDYSYGYDYFDYWGQGTLVTVSS VL: QTVVTQEPSFSVSPGGTVTLTCGLSSGSVSTSYYPSWYQQTPGQAPRTLIYSTNTRSSGVPDRFSGSILGNKAALTITGAQADDESDYYCVLYMGSGISYVFGTGTKVTVL | 5.8 | 2 | –
3 | Fab VH5-51_IGHD5-18*01>3_IGHJ4*01 G100R & V3-4_IGLJ1*01 (Fab, V domains shown, Fab; VH-CH1 (His6/Flag, Plasmid A) and VL-lambda CL (Plasmid E)) VH: EVQLVQSGAEVKKPGESLKISCKGSGYSFTSYWIGWVRQMPGKGLEWMGIIYPGDSDTRYSPSFQGQVTISADKSISTAYLQWSSLKASDTAMYYCARRRYSYGYDYFDYWGQGTLVTVSS VL: QTVVTQEPSFSVSPGGTVTLTCGLSSGSVSTSYYPSWYQQTPGQAPRTLIYSTNTRSSGVPDRFSGSILGNKAALTITGAQADDESDYYCVLYMGSGISYVFGTGTKVTVL | 90.6 | 39.9 | –
4 | Fab VH5-51_IGHD5-18*01>3_IGHJ4*01 G100K & V3-4_IGLJ1*01 (Fab, V domains shown, Fab; VH-CH1 (His6/Flag, Plasmid A) and VL-lambda CL (Plasmid E)) VH: EVQLVQSGAEVKKPGESLKISCKGSGYSFTSYWIGWVRQMPGKGLEWMGIIYPGDSDTRYSPSFQGQVTISADKSISTAYLQWSSLKASDTAMYYCARRKYSYGYDYFDYWGQGTLVTVSS VL: QTVVTQEPSFSVSPGGTVTLTCGLSSGSVSTSYYPSWYQQTPGQAPRTLIYSTNTRSSGVPDRFSGSILGNKAALTITGAQADDESDYYCVLYMGSGISYVFGTGTKVTVL | 134 | 72.6 | –

Further lines, with some results ahead:

Row | Signal/Noise (Recombinant Human DLL4 [6]) | Signal/Noise (Recombinant Human DLL4 [7]) | Binder | also measured
5 | 17.6 | 9.1 | Fab VH5-51_IGHD5-18*01>3_IGHJ4*01 G104K & V3-4_IGLJ1*01 (Fab, V domains shown, Fab; VH-CH1 (His6/Flag, Plasmid A) and VL-lambda CL (Plasmid E)) VH: EVQLVQSGAEVKKPGESLKISCKGSGYSFTSYWIGWVRQMPGKGLEWMGIIYPGDSDTRYSPSFQGQVTISADKSISTAYLQWSSLKASDTAMYYCARRGYSYKYDYFDYWGQGTLVTVSS VL: QTVVTQEPSFSVSPGGTVTLTCGLSSGSVSTSYYPSWYQQTPGQAPRTLIYSTNTRSSGVPDRFSGSILGNKAALTITGAQADDESDYYCVLYMGSGISYVFGTGTKVTVL | –
6 | 42.5 | 23.2 | Fab VH5-51_IGHD5-18*01>3_IGHJ4*01 G104D & V3-4_IGLJ1*01 (Fab, V domains shown, Fab; VH-CH1 (His6/Flag, Plasmid A) and VL-lambda CL (Plasmid E)) VH: EVQLVQSGAEVKKPGESLKISCKGSGYSFTSYWIGWVRQMPGKGLEWMGIIYPGDSDTRYSPSFQGQVTISADKSISTAYLQWSSLKASDTAMYYCARRGYSYDYDYFDYWGQGTLVTVSS VL: QTVVTQEPSFSVSPGGTVTLTCGLSSGSVSTSYYPSWYQQTPGQAPRTLIYSTNTRSSGVPDRFSGSILGNKAALTITGAQADDESDYYCVLYMGSGISYVFGTGTKVTVL | –
7 | 29.1 | 12.3 | Fab VH5-51_IGHD5-18*01>3_IGHJ4*01 G104M & V3-4_IGLJ1*01 (Fab, V domains shown, Fab; VH-CH1 (His6/Flag, Plasmid A) and VL-lambda CL (Plasmid E)) VH: EVQLVQSGAEVKKPGESLKISCKGSGYSFTSYWIGWVRQMPGKGLEWMGIIYPGDSDTRYSPSFQGQVTISADKSISTAYLQWSSLKASDTAMYYCARRGYSYMYDYFDYWGQGTLVTVSS VL: QTVVTQEPSFSVSPGGTVTLTCGLSSGSVSTSYYPSWYQQTPGQAPRTLIYSTNTRSSGVPDRFSGSILGNKAALTITGAQADDESDYYCVLYMGSGISYVFGTGTKVTVL | –
8 | 26 | 11 | Fab VH5-51_IGHD5-18*01>3_IGHJ4*01 G100T & V3-4_IGLJ1*01 (Fab, V domains shown, Fab; VH-CH1 (His6/Flag, Plasmid A) and VL-lambda CL (Plasmid E)) VH: EVQLVQSGAEVKKPGESLKISCKGSGYSFTSYWIGWVRQMPGKGLEWMGIIYPGDSDTRYSPSFQGQVTISADKSISTAYLQWSSLKASDTAMYYCARRTYSYGYDYFDYWGQGTLVTVSS VL: QTVVTQEPSFSVSPGGTVTLTCGLSSGSVSTSYYPSWYQQTPGQAPRTLIYSTNTRSSGVPDRFSGSILGNKAALTITGAQADDESDYYCVLYMGSGISYVFGTGTKVTVL | –
9 | 6.7 | 2.6 | Fab VH5-51_IGHD5-18*01>3_IGHJ4*01 G104A & V3-4_IGLJ1*01 (Fab, V domains shown, Fab; VH-CH1 (His6/Flag, Plasmid A) and VL-lambda CL (Plasmid E)) VH: EVQLVQSGAEVKKPGESLKISCKGSGYSFTSYWIGWVRQMPGKGLEWMGIIYPGDSDTRYSPSFQGQVTISADKSISTAYLQWSSLKASDTAMYYCARRGYSYAYDYFDYWGQGTLVTVSS VL: QTVVTQEPSFSVSPGGTVTLTCGLSSGSVSTSYYPSWYQQTPGQAPRTLIYSTNTRSSGVPDRFSGSILGNKAALTITGAQADDESDYYCVLYMGSGISYVFGTGTKVTVL | –
